As usually defined, the Kd is the constant that tells how readily two partners part at equilibrium. A high value points to weaker binding.

In test [1] the target is His-tagged human FcγR variant CD32b (human) (UniProt P31994). The test is described as follows: BLI (Octet HTX), His-tagged FcγR on anti-Penta-HIS biosensors, 1:1 fit; * denotes weak binding/inaccurate KD. On the technique in general: In BLI a coated tip is dipped into the sample, and binding shifts an interference pattern.
The target is the same in test [2]. The test is described as follows: BLI (Octet HTX), His-tagged FcγR on anti-Penta-HIS biosensors, Fc in solution, 1:1 fit.

Regarding “IgG1-CH2-CH3-WT, wild-type Fc region of human IgG1 (from UniProt P0DOX5 218-449)”, the Kd in test [1] is 3760 nM.

Consider “IgG1-CH2-CH3-DLE mutant (Ser239Asp/Ala330Leu/Ile332Glu), monomeric Fc fragment (from UniProt P0DOX5 218-449)”, for which, in test [2], the Kd is 1.34 nM.

These data come from patent US20250282876A1, “STABLE Fc FRAGMENTS, CONJUGATES, COMPOSITIONS, AND METHODS OF USE” (PURDUE RESEARCH FOUNDATION, priority 2022, published 2025).
